# Laboratory results published in patent US20190083615A1 (Merck Sharp & Dohme, published 2019).
# B1: Ab6: humanized light chain 45AGX Humanized x[LAG3_H] mAb (LB145.22D2.E1.D1 (VL3)) Kappa (PX) and humanized heavy chain 73AHD Humanized x[LAG3_H] mAb … (antibody)
# heavy: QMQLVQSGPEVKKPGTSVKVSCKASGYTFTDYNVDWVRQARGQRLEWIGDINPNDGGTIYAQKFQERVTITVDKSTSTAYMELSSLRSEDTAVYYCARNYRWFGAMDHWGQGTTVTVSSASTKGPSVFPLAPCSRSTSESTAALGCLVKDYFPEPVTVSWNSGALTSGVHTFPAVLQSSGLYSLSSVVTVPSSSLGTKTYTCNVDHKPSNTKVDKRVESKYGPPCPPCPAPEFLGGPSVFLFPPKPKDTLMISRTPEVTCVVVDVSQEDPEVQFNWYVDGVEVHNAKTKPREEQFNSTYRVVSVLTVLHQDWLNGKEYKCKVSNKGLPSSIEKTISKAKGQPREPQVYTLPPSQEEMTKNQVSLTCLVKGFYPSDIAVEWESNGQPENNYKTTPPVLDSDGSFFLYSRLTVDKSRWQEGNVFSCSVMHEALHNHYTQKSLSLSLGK
# light: DIVMTQTPLSLSVTPGQPASISCKASQSLDYEGDSDMNWYLQKPGQPPQLLIYGASNLESGVPDRFSGSGSGTDFTLKISRVEAEDVGVYYCQQSTEDPRTFGGGTKVEIKRTVAAPSVFIFPPSDEQLKSGTASVVCLLNNFYPREAKVQWKVDNALQSGNSQESVTEQDSKDSTYSLSSTLTLSKADYEKHKVYACEVTHQGLSSPVTKSFNRGEC
# notes: Humanized 22D2 N55D, IgG4 S228P/kappa; also called Hu22D2 VH6/VL3 N55D (Ab 6); hu22D2 VH6/VL3 N55D
# Legend:
# [1] = target: T1, human LAG3 (Lymphocyte Activation Gene-3) expressed on cells (human, UniProt P18627 23-525); experiment: cell based KinExA, BaF/3 cells transfected with human LAG3 (n=3)
# T1 construct: also called hLAG3; CD223
# T1 sequence: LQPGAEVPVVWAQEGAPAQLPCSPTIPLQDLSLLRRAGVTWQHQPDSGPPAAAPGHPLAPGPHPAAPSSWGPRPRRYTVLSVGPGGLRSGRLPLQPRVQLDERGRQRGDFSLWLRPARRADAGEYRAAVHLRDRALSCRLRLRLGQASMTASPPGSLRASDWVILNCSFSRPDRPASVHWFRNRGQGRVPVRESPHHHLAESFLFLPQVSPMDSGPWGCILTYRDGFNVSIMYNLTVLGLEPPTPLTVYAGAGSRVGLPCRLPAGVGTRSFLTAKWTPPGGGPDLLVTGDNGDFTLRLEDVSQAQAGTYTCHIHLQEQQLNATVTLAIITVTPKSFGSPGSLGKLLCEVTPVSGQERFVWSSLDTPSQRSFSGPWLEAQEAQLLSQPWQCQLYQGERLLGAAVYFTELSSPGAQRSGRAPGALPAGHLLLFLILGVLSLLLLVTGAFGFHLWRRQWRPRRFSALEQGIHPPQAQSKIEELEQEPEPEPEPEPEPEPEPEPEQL
# Description: The affinities of the LAG3 antibodies for LAG3 were determined using a cell based Kinetic Exclusion Assay (KinExA). Cell based KinExA can be used to measure the affinity of a molecule for a binding partner on a cell surface (Rathanaswami et al. Analylitical Biochemistry 373(1): 52-60 (2008); Xie et al. J. Immunol. Methods 304 (1-2): 1-14 (2005)). In this case, BaF/3 cells were stably transfected with human and cynomolgus monkey LAG3 proteins. Transfected cells or the parental BaF/3 control cell line were grown to a density of 1.7×10⁶ to 3.2×10⁶ cells per ml at 37° C., 120 RPM, 5% CO₂, in 1X RPMI 1640 media with 10% FBS, 10 ng/ml IL-3, 5 μg/ml puromycin. Cells were concentrated, mixed with 15 pM or 150 pM antibody in cell culture media and incubated 24 to 48 hours at room temperature while rotating at 20 to 30 RPM. Cells were present at a top concentration of 2×10⁷ cells per ml (parental BaF/3 or cynomolgus LAG3 transfectants) or 1×10⁷ cells per ml (human LAG3 transfectants) and diluted in a 2-fold, 18 member series. The cells were pelleted and free antibody in the supernatant was measured using a KinExA 3200 instrument (Sapidyne, Id., USA). […] Antibody on the beads was labeled with 1.5 μg/ml Alexa Fluor® 647 conjugated goat anti-human (Fab′)₂ (Jackson ImmunoResearch Laboratories), washed and the fluorescent signal was read all using the KinExA™ 3200. […]
# [2] = target: T1, human LAG3 (Lymphocyte Activation …); experiment: flow cytometry, PHA-activated human CD8+ T cells (3 donors)
# Description: (§1) Binding of LAG-3 mAb clones to primary T-cells was assessed using human and cynomolgous monkey (cyno) peripheral blood mononuclear cells (PBMC). Human blood was obtained from the local donors; cyno blood was obtained from Bioreclamation. PBMC were isolated from the whole blood using Ficoll-Paque Plus (GE Healthcare, Cat# 17-1440-03) density gradient centrifugation at 524×g for 40 minutes. PBMC were collected from the medium:plasma interface and washed 2 times with phosphate buffered saline (PBS). The residual red blood cells were lysed using ammonium-chloride-potassium red blood cell lysing solution (ACK, GIBCO, cat# A10492-010). Cynomolgus monkey or human PBMC (3×10⁶/ml) were stimulated with 4 μg/ml PHA (Sigma, L2769) for 48 h and 20 h, respectively. For flow cytometric analysis, 1×10⁶ PHA-activated PBMCs were used per staining in 50 μl FACS staining buffer (BD, cat# 554657). LAG-3 mAb clones or correspondent isotype controls were incubated with human or cyno PBMS followed by detection using goat anti-mouse IgG-PE (BD 550589). […] Sample acquisition was performed on an LSR II flow cytometer and the data were analyzed using FlowJo software version 10.0.6 (Tree Star, Inc.).
# (§2) The data represent 3 human and 3 cynomolgus donors after stimulation with 4 ug/ml of PHA for 40 hours prior to staining.
# [3] = target: T2, human LAG3-huFc recombinant protein (human, UniProt P18627 23-450, limits assumed, biotinylated in the runs with humanized and chimeric antibodies (Example 11)); experiment: flow cytometry, blockade of biotinylated human LAG3-huFc binding to MHC class II on Daudi cells, streptavidin-PE
# T2 construct: also called human LAG3-Fc; huLAG3-huFc; not shown: human Fc
# T2 sequence: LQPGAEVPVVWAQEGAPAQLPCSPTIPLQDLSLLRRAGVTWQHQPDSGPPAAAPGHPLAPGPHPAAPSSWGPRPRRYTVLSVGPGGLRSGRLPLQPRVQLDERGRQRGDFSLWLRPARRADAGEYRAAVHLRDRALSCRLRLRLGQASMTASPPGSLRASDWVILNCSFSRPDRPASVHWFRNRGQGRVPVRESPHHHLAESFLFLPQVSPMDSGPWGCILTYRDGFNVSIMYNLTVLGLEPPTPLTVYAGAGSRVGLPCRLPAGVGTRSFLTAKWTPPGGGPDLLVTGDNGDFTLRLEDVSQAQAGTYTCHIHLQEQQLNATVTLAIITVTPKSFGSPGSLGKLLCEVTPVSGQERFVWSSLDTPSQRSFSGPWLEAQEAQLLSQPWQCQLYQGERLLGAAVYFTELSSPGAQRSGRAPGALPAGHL
# Description: Mouse anti-human LAG3 and humanized anti-LAG3 clones were tested for their ability to block hLAG3 interaction with human MHC Class II. Daudi cells (ATCC #CCL-213) were used as a cell line positive for human MHC class II expression. Daudi cells were blocked with 10 ug/ml of goat IgG in HBSS and 2% BCS on ice for 30 minutes and 0.5×10⁶ cells/sample were aliquoted into a 96-well V-bottom plate and blocking buffer removed. […] Cells were pelleted by centrifugation at 1200 rpm and washed twice with HBSS/2% BCS. […] Cells were washed twice as described above, resuspended in HBSS/2% BCS and read on the FACSCalibur.
# [4] = target: T3, human CD4 (human, UniProt P01730 26-458); experiment: BiaCore (SPR)
# T3 construct: whole, on cells; Tested on transfected L-cells by FACS and also by BiaCore
# [5] = target: T1, human LAG3 (Lymphocyte Activation …); experiment: flow cytometry, PHA-activated human CD4+ T cells (3 donors)
# Description: as §1, §2
binder,measurement,setting,value
B1,Kd,[1],2 pM
same,EC50,[2],33 pM
same,IC50,[3],2400 pM
same,binding result,[4],no binding
same,EC50,[5],39 pM
